Columns and labels:
[1] = tested on: O=C(O)CC(C(=O)O)C(O)C(=O)O; assay: purified protein; settings: Mn2+ (2 mM MnCl2), NADP+ co-substrate, 35 mM Tris-HCl pH 7.5, 25 °C, DL-isocitrate in the assay
[2] = tested on: NC(=O)c1ccc[n+]([C@@H]2O[C@H](COP(=O)(O)OP(=O)(O)OC[C@H]3O[C@@H](n4cnc5c(N)ncnc54)[C@H](OP(=O)(O)O)[C@@H]3O)[C@@H](O)[C@H]2O)c1; assay: purified protein; settings: Mn2+ (2 mM MnCl2), 1.0 mM isocitrate, 35 mM Tris-HCl pH 7.5, 25 °C, varied: cofactor
[3] = biological target: Isocitrate dehydrogenase 2 from Acinetobacter baumannii (AbIDH2) (Acinetobacter baumannii); assay: SEC; analytical gel filtration, Superdex 200 10/300 column, 50 mM NaH2PO4 pH 7.5, 300 mM NaCl, flow rate 0.5 mL/min; mass from a calibration curve
[4] = biological target: Isocitrate dehydrogenase 2 from Acinetobacter baumannii (AbIDH2) (Acinetobacter baumannii); assay: AUC; sedimentation velocity, Beckman XL-A, An-60 Ti rotor, 20 °C, 45,000 g, continuous c(s) distribution

Row | Substance | Km [1] [µM] | kcat [1] [s⁻¹] | Km [2] [µM] | kcat [2] [s⁻¹] | kcat/Km [2] [M⁻¹ s⁻¹] | stoichiometry N [3] | stoichiometry N [4]
1 | AbIDH2 (Acinetobacter baumannii ATCC 19606 = CIP 70.34 = JCM 6841) | 20.6 ± 3.1 | 39.2 ± 2.1 | 94 ± 6 | 36.9 ± 1.2 | 390000 |  | 
2 | Isocitrate dehydrogenase 2 from Acinetobacter baumannii (AbIDH2) (enzyme) |  |  |  |  |  | 2 | 2

Source: publication PMC5979607, “Crystal Structure of the Isocitrate Dehydrogenase 2 from Acinetobacter baumannii (AbIDH2) Reveals a Novel Dimeric Structure with Two Monomeric-IDH-Like Subunits” (International Journal of Molecular Sciences, 2018)
